Data on four molecules can be found in patent publication US20220411531A1 (SUMGEN MAB BEIJING BIOTECH, published 2022).

Numbering of substitutions follows the chain as printed.

For experiment [1], the target named is T1, AXL-His (Sino Biological Inc., 6x His labels, molecular weight 47.5 Kda) (UniProt P30530-2 26-440, limits assumed).
T1 construct: Bought reagent; also called target antigen AXL-His; target antigen AXL; not shown: 6x His tag
T1 sequence (looked up): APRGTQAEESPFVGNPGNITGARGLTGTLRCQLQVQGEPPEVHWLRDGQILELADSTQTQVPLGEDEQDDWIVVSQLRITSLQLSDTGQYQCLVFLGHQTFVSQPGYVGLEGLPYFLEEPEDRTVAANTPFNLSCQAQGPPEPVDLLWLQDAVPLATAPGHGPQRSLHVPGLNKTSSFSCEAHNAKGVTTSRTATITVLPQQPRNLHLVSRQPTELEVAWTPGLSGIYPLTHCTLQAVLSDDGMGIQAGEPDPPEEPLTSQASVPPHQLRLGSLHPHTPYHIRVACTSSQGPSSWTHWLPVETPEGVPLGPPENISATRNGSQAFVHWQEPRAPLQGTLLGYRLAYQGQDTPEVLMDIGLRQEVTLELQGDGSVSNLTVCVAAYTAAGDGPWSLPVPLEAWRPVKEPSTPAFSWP
Put plainly: SPR (Biacore T-200), antibody captured on chip, AXL-His as analyte. As for the experimental part:
In this test, the affinity of AXL-His to each of the antibodies 6G12M11, 6G12M21, 6G12M31, and 6G12M41 was detected by the surface plasmon resonance technology. The test instrument used was BIACOR biomacromolecule interaction instrument (GE Healthcare, T-200). The antibodies 6G12M11, 6G12M21, 6G12M31, and 6G12M41 were immobilized on the surface of a chip by an antibody capturing method, and with all the concentrations set to 0.5 μg/mL, were injected for 60 seconds at a flow rate of 10 μL/min. The prepared AXL-His (Sino Biological Inc., 6× His labels, molecular weight: 47.5 Kda) as a mobile phase was let to flow through the surface of the chip under 5 concentration gradients (8, 4, 2, 1, 0.5 μg/mL) respectively for interaction determination. The AXL-His underwent association for 120 s and dissociation for 1800 s at the flow rate of 30 μL/min.

The target in experiment [2] is T1, AXL-His (Sino Biological Inc., 6x His …). Put plainly: ELISA, AXL-His coated at 1 ug/ml. As for the experimental part:
A target antigen AXL-His (Sino Biological Inc.) was coated at 1 μg/ml on an ELISA strip, which was held at 4° C. overnight. After the ELISA strip was washed with PBST, 10% fetal bovine serum was added to the ELISA strip, which was blocked for 1 hour at 37° C. Different concentrations of antibodies 6G12M11, 6G12M21, 6G12M31 and 6G12M41 were added to react at 37° C. for 1 hour. After the ELISA strip was washed with PBST, a horseradish peroxidase-labeled goat anti-mouse secondary antibody (Goat Anti-mouse IgG HRP, Abcam) was added to react for 30 minutes at 37° C. The ELISA strip was washed 5 times with PBST, and patted and dried on absorbent paper to remove residual droplets as much as possible. 100 μl of TMB (eBioscience) was added to each well, and the ELISA strip was held for 1.5 min at room temperature (20±5° C.) in the dark. 100 μl of 2N H₂SO₄ stop solution was added to each well to terminate substrate reaction. The OD value was read at 450 nm by a microplate reader to analyze the binding ability of each antibody to the target antigen AXL. The amino acid sequence of the heavy chain of antibody 6G12M11 is as set forth in SEQ ID NO: 35, and the amino acid sequence of the light chain of the same is as set forth in SEQ ID NO: 36; the amino acid sequence of the heavy chain of antibody 6G12M21 is as set forth in SEQ ID NO: 37, and the amino acid sequence of the light chain of the same is as set forth in SEQ ID NO: 38; the VH of antibody 6G12M31 is as set forth in SEQ ID NO: 42, and the VL of the same is as set forth in SEQ ID NO: 6; and the VH of antibody 6G12M41 is as set forth in SEQ ID NO: 43, and the VL of the same is as set forth in SEQ ID NO: 6.
It can be seen that both antibodies 6G12M11 and 6G12M21 can specifically recognize the target antigen AXL.

B1: antibody 6G12M31 (antibody, V domains shown)
VH: QVQLVQSGPGLVKPSQSLSLTCSVTGFSISSGYYWNWIRQFPGQKLEWMGYRSYDGSNNYDPSLKNRISITRDTSKNQFFLKLNSVTSEDTATYYCARGWLLHYTMDYWGQGTTVTVSS
VL: DIVMTQSPSSVSVTLGQSASISCRSSRSLLHSNGFTYLYWYLQKPGQSPQLLIYQMSNLASGVPDRFSGSGSGTDFTLKISRVEAEDVGVYYCGQNLELPLTFGGGTKLEIK
In experiment [1], B1 displayed a Kd of 29.2 nM, a koff of 0.00116 s⁻¹ and a kon of 39700 M⁻¹ s⁻¹. Besides, the EC50 in experiment [2] was 0.0211 µg/mL.

B2: antibody 6G12M11 (antibody, human IgG1, kappa, V domains shown)
VH: B1 VH with S23A, D61N
VL: EIVMTQSPSSVSVTLGQSASISCRSSRSLLHSNGFTYLYWYLQKPGQSPQLLIYQMSNLASGVPDRFSGSGSGTDFTLKISRVEAEDVGVYYCGQNLELPLTFGGGTKLEIKR
Turning to B2, in experiment [1], the Kd turned out to be 11.7 nM, the koff was 0.00114 s⁻¹ and the kon came to 97400 M⁻¹ s⁻¹. For the same molecule, the EC50 in experiment [2] turned out to be 0.027 µg/mL.

B3: antibody 6G12M41 (antibody, V domains shown)
VH: B1 VH with D61G
VL: B1 VL
B3: in experiment [1], the equilibrium dissociation constant (Kd) amounted to 28.7 nM, the koff amounted to 0.00119 s⁻¹ and the kon was found to be 41500 M⁻¹ s⁻¹. The molecule also registered an EC50 in experiment [2] of 0.0176 µg/mL.

B4: antibody 6G12M21 (antibody, human IgG1, kappa, V domains shown)
VH: B1 VH with D61N
VL: B2 VL with E1D
As to B4, in experiment [1], the Kd was 10.2 nM, the koff was 0.00114 s⁻¹ and the kon is 112000 M⁻¹ s⁻¹. The EC50 in experiment [2] was found to be 0.0253 µg/mL.

For orientation: Kd means the constant that tells how readily two partners part at equilibrium. A higher Kd goes with lower affinity. By koff is commonly meant the first-order rate constant of dissociation. High values mean fast dissociation, low ones slow dissociation. What is called kon is the rate constant with which the complex forms. Higher therefore signals fast association. In general, EC50 refers to the concentration that produces a half-maximal response. Low readings indicate greater potency, high ones weaker potency.
